The source of these data is article PMC12416549 (2024).

The chains are these.
T1: TNFR1 (Homo sapiens, UniProt P19438)
T1 chain: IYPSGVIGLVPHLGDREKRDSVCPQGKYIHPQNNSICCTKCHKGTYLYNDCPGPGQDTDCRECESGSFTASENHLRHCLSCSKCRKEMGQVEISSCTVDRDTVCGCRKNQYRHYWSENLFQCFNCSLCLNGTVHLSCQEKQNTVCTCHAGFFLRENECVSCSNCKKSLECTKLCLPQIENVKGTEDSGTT

B1: E9M (designed binder)
chain: MTLQELLRMEALRRAEAEAFRYALELLAEKFPEQKEYLLDLAEEIESQIRSLSGVDVEDVRKFLDKEWAWVKELLAEHPAELAEVEAARAARLAELRAEVEAKVAA
B2: Q48N (designed binder)
chain: MTLQELLREEALRRAEAEAFRYALELLAEKFPEQKEYLLDLAEEIESNIRSLSGVDVEDVRKFLDKEWAWVKELLAEHPAELAEVEAARAARLAELRAEVEAKVAA
B3: A91H (designed binder)
chain: MTLQELLREEALRRAEAEAFRYALELLAEKFPEQKEYLLDLAEEIESQIRSLSGVDVEDVRKFLDKEWAWVKELLAEHPAELAEVEAARAHRLAELRAEVEAKVAA
B4: H78L (designed binder)
chain: MTLQELLREEALRRAEAEAFRYALELLAEKFPEQKEYLLDLAEEIESQIRSLSGVDVEDVRKFLDKEWAWVKELLAELPAELAEVEAARAARLAELRAEVEAKVAA
B5: A76D (designed binder)
chain: MTLQELLREEALRRAEAEAFRYALELLAEKFPEQKEYLLDLAEEIESQIRSLSGVDVEDVRKFLDKEWAWVKELLDEHPAELAEVEAARAARLAELRAEVEAKVAA
B6: R8I (designed binder)
chain: MTLQELLIEEALRRAEAEAFRYALELLAEKFPEQKEYLLDLAEEIESQIRSLSGVDVEDVRKFLDKEWAWVKELLAEHPAELAEVEAARAARLAELRAEVEAKVAA
B7: A88V (designed binder)
chain: MTLQELLREEALRRAEAEAFRYALELLAEKFPEQKEYLLDLAEEIESQIRSLSGVDVEDVRKFLDKEWAWVKELLAEHPAELAEVEAVRAARLAELRAEVEAKVAA
B8: L7T (designed binder)
chain: MTLQELTREEALRRAEAEAFRYALELLAEKFPEQKEYLLDLAEEIESQIRSLSGVDVEDVRKFLDKEWAWVKELLAEHPAELAEVEAARAARLAELRAEVEAKVAA
B9: F63I (designed binder)
chain: MTLQELLREEALRRAEAEAFRYALELLAEKFPEQKEYLLDLAEEIESQIRSLSGVDVEDVRKILDKEWAWVKELLAEHPAELAEVEAARAARLAELRAEVEAKVAA
B10: E86K (designed binder)
chain: MTLQELLREEALRRAEAEAFRYALELLAEKFPEQKEYLLDLAEEIESQIRSLSGVDVEDVRKFLDKEWAWVKELLAEHPAELAEVKAARAARLAELRAEVEAKVAA
B11: L3W (designed binder)
chain: MTWQELLREEALRRAEAEAFRYALELLAEKFPEQKEYLLDLAEEIESQIRSLSGVDVEDVRKFLDKEWAWVKELLAEHPAELAEVEAARAARLAELRAEVEAKVAA
B12: L52F (designed binder)
chain: MTLQELLREEALRRAEAEAFRYALELLAEKFPEQKEYLLDLAEEIESQIRSFSGVDVEDVRKFLDKEWAWVKELLAEHPAELAEVEAARAARLAELRAEVEAKVAA
B13: S47K (designed binder)
chain: MTLQELLREEALRRAEAEAFRYALELLAEKFPEQKEYLLDLAEEIEKQIRSLSGVDVEDVRKFLDKEWAWVKELLAEHPAELAEVEAARAARLAELRAEVEAKVAA
B14: A94P (designed binder)
chain: MTLQELLREEALRRAEAEAFRYALELLAEKFPEQKEYLLDLAEEIESQIRSLSGVDVEDVRKFLDKEWAWVKELLAEHPAELAEVEAARAARLPELRAEVEAKVAA
B15: L96W (designed binder)
chain: MTLQELLREEALRRAEAEAFRYALELLAEKFPEQKEYLLDLAEEIESQIRSLSGVDVEDVRKFLDKEWAWVKELLAEHPAELAEVEAARAARLAEWRAEVEAKVAA
B16: L12Y (designed binder)
chain: MTLQELLREEAYRRAEAEAFRYALELLAEKFPEQKEYLLDLAEEIESQIRSLSGVDVEDVRKFLDKEWAWVKELLAEHPAELAEVEAARAARLAELRAEVEAKVAA
B17: L93G (designed binder)
chain: MTLQELLREEALRRAEAEAFRYALELLAEKFPEQKEYLLDLAEEIESQIRSLSGVDVEDVRKFLDKEWAWVKELLAEHPAELAEVEAARAARGAELRAEVEAKVAA
B18: K35E (designed binder)
chain: MTLQELLREEALRRAEAEAFRYALELLAEKFPEQEEYLLDLAEEIESQIRSLSGVDVEDVRKFLDKEWAWVKELLAEHPAELAEVEAARAARLAELRAEVEAKVAA
B19: V60M (designed binder)
chain: MTLQELLREEALRRAEAEAFRYALELLAEKFPEQKEYLLDLAEEIESQIRSLSGVDVEDMRKFLDKEWAWVKELLAEHPAELAEVEAARAARLAELRAEVEAKVAA
B20: K103Y (designed binder)
chain: MTLQELLREEALRRAEAEAFRYALELLAEKFPEQKEYLLDLAEEIESQIRSLSGVDVEDVRKFLDKEWAWVKELLAEHPAELAEVEAARAARLAELRAEVEAYVAA
B21: M1W (designed binder)
chain: WTLQELLREEALRRAEAEAFRYALELLAEKFPEQKEYLLDLAEEIESQIRSLSGVDVEDVRKFLDKEWAWVKELLAEHPAELAEVEAARAARLAELRAEVEAKVAA
B22: A90C (designed binder)
chain: MTLQELLREEALRRAEAEAFRYALELLAEKFPEQKEYLLDLAEEIESQIRSLSGVDVEDVRKFLDKEWAWVKELLAEHPAELAEVEAARCARLAELRAEVEAKVAA
B23: A87N (designed binder)
chain: MTLQELLREEALRRAEAEAFRYALELLAEKFPEQKEYLLDLAEEIESQIRSLSGVDVEDVRKFLDKEWAWVKELLAEHPAELAEVENARAARLAELRAEVEAKVAA
B24: E86T (designed binder)
chain: MTLQELLREEALRRAEAEAFRYALELLAEKFPEQKEYLLDLAEEIESQIRSLSGVDVEDVRKFLDKEWAWVKELLAEHPAELAEVTAARAARLAELRAEVEAKVAA
B25: K62G (designed binder)
chain: MTLQELLREEALRRAEAEAFRYALELLAEKFPEQKEYLLDLAEEIESQIRSLSGVDVEDVRGFLDKEWAWVKELLAEHPAELAEVEAARAARLAELRAEVEAKVAA
B26: V85S (designed binder)
chain: MTLQELLREEALRRAEAEAFRYALELLAEKFPEQKEYLLDLAEEIESQIRSLSGVDVEDVRKFLDKEWAWVKELLAEHPAELAESEAARAARLAELRAEVEAKVAA
B27: A83I (designed binder)
chain: MTLQELLREEALRRAEAEAFRYALELLAEKFPEQKEYLLDLAEEIESQIRSLSGVDVEDVRKFLDKEWAWVKELLAEHPAELIEVEAARAARLAELRAEVEAKVAA
B28: L52M (designed binder)
chain: MTLQELLREEALRRAEAEAFRYALELLAEKFPEQKEYLLDLAEEIESQIRSMSGVDVEDVRKFLDKEWAWVKELLAEHPAELAEVEAARAARLAELRAEVEAKVAA
B29: E29C (designed binder)
chain: MTLQELLREEALRRAEAEAFRYALELLACKFPEQKEYLLDLAEEIESQIRSLSGVDVEDVRKFLDKEWAWVKELLAEHPAELAEVEAARAARLAELRAEVEAKVAA
B30: A102E (designed binder)
chain: MTLQELLREEALRRAEAEAFRYALELLAEKFPEQKEYLLDLAEEIESQIRSLSGVDVEDVRKFLDKEWAWVKELLAEHPAELAEVEAARAARLAELRAEVEEKVAA
B31: A91F (designed binder)
chain: MTLQELLREEALRRAEAEAFRYALELLAEKFPEQKEYLLDLAEEIESQIRSLSGVDVEDVRKFLDKEWAWVKELLAEHPAELAEVEAARAFRLAELRAEVEAKVAA
B32: L64N (designed binder)
chain: MTLQELLREEALRRAEAEAFRYALELLAEKFPEQKEYLLDLAEEIESQIRSLSGVDVEDVRKFNDKEWAWVKELLAEHPAELAEVEAARAARLAELRAEVEAKVAA
B33: L27K (designed binder)
chain: MTLQELLREEALRRAEAEAFRYALELKAEKFPEQKEYLLDLAEEIESQIRSLSGVDVEDVRKFLDKEWAWVKELLAEHPAELAEVEAARAARLAELRAEVEAKVAA
B34: L12W (designed binder)
chain: MTLQELLREEAWRRAEAEAFRYALELLAEKFPEQKEYLLDLAEEIESQIRSLSGVDVEDVRKFLDKEWAWVKELLAEHPAELAEVEAARAARLAELRAEVEAKVAA

This assay concerns the target T1, TNFR1. The experiment in a line: yeast display SC50.
In the case of B1, the “apparent Kd (screen)” value is 0.653 nM. For the molecule B2, the “apparent Kd (screen)” value stood at 0.49 nM.

Take B3: the “apparent Kd (screen)” value was determined as 0.593 nM. Take B4: the “apparent Kd (screen)” value was found to be 1.86 nM. As to B5, the “apparent Kd (screen)” value is 0.446 nM. As to B6, the “apparent Kd (screen)” value came to 0.593 nM. On to B7, for which the “apparent Kd (screen)” value stood at 0.956 nM. As to B8, the “apparent Kd (screen)” value worked out at 18.3 nM. With B9, the “apparent Kd (screen)” value is 1.54 nM. B10: the “apparent Kd (screen)” value was found to be 1.27 nM.

Regarding B11, the “apparent Kd (screen)” value worked out at 2.25 nM. With B12, the “apparent Kd (screen)” value was 1.69 nM. Regarding B13, the “apparent Kd (screen)” value was determined as 0.653 nM. In the case of B14, the “apparent Kd (screen)” value is 0.956 nM. Turning to B15, the “apparent Kd (screen)” value was found to be 0.79 nM. Consider B16, for which the “apparent Kd (screen)” value came to 0.539 nM. In the case of B17, the “apparent Kd (screen)” value was found to be 1.4 nM. Consider B18, for which the “apparent Kd (screen)” value was 1.16 nM. B19: the “apparent Kd (screen)” value was determined as 0.49 nM.

With B20, the “apparent Kd (screen)” value was 0.869 nM. The same measure for B21: 0.653 nM. With B22, the “apparent Kd (screen)” value worked out at 0.718 nM. For B23, the “apparent Kd (screen)” value was 0.593 nM. B24: the “apparent Kd (screen)” value is 0.718 nM. The same measure for B25: 0.869 nM; for B26: 0.869 nM; for B27: 0.869 nM.

Take B28: the “apparent Kd (screen)” value stood at 15.2 nM. In the case of B29 it was 0.539 nM; in that of B30, 0.49 nM; in that of B31, 0.49 nM.

Turning to B32, the “apparent Kd (screen)” value is 0.593 nM. B33: the “apparent Kd (screen)” value was determined as 0.49 nM. Turning to B34, the “apparent Kd (screen)” value stood at 0.593 nM.
